Substitutions are numbered along the chain they refer to.
B1: H2-Kb / Ed21 (parent complex)
chain 1: AQSVTQPDARVTVSEGASLQLRCKYSYFGTPYLFWYVQYPRQGLQLLLKYYPGDPVVQGVNGFEAEFSKSNSSFHLRKASVHWSDWAVYFCAVSMSGGYKVVFGSGTRLLVSP
chain 2: DSGVVQSPRHIIKEKGGRSVLTCIPISGHSNVVWYQQTLGKELKFLIQHYEKVERDKGFLPSRFSVQQFDDYHSEMNMSALELEDSAMYFCASSPRQTDYTFGSGTRLLVI
chain 3: not shown
chain 4: IQKTPQIQVYSRHPPENGKPNILNCYVTQFHPPHIEIQMLKNGKKIPKVEMSDMSFSKDWSFYILAHTEFTPTETDTYACRVKHDSMAEPKTVYWDRDM
chain 5: SIINFEKL
B2: H2-Kb / Ed28 (parent complex)
chain 1: AQSVTQPDARVTVSEGASLQLRCKYSYFGTPYLFWYVQYPRQGLQLLLKYYPGDPVVQGVNGFEAEFSKSNSSFHLRKASVHWSDWAVYFCAVSPGSGGKLTLGAGTRLQVNL
chain 2: B1 chain 2 with Q97A, T98S
chain 3: not shown
chain 4: B1 chain 4
chain 5: SIINFEKL

Variants of: B1
Experiment: % of reporter cells activated (NFAT-GFP), raw
Also: test concentration or dose not given here.

First: chain 5 I3Q
Second: chain 5 S1N
The ratio to parent of the first is higher: 0.902 for the first, 0.724 for the second.

Going from chain 5 E6Y to chain 5 K7Q, the ratio to parent rises from 0.366 to 0.568.

Compared with chain 5 L8T, chain 5 N4C is lower in ratio to parent: 0.783 for the first, 0.162 for the second.

Compared with chain 5 I2E, chain 5 E6N is lower in ratio to parent: 0.964 for the first, 0.884 for the second.

First: chain 5 I3R
Second: chain 5 K7L
The ratio to parent of the first is lower: 0.775 for the first, 0.785 for the second.

Compared with chain 5 K7T, chain 5 E6S is lower in ratio to parent: 0.752 for the first, 0.641 for the second.

First: chain 5 K7A
Second: chain 5 I3A
The ratio to parent of the first is lower: 0.645 for the first, 0.872 for the second.

Going from chain 5 K7E to chain 5 I2N, the ratio to parent rises from 0.0818 to 1.01.

First: chain 5 I2R
Second: chain 5 L8H
The ratio to parent of the first is lower: 0.916 for the first, 1.03 for the second.

First: chain 5 N4R
Second: chain 5 F5T
The ratio to parent of the first is lower: 0.476 for the first, 0.964 for the second.

Compared with chain 5 I2G, chain 5 I2Q is lower in ratio to parent: 1 for the first, 0.904 for the second.

Going from chain 5 K7G to chain 5 E6D, the ratio to parent rises from 0.605 to 0.964.

Going from chain 5 K7V to chain 5 I3S, the ratio to parent rises from 0.788 to 0.901.

Going from chain 5 S1A to chain 5 I2P, the ratio to parent falls from 1.02 to 0.975.

Going from chain 5 L8Y to chain 5 I3M, the ratio to parent rises from 0.976 to 0.99.

Compared with chain 5 E6G, chain 5 S1K is lower in ratio to parent: 0.785 for the first, 0.664 for the second.

First: chain 5 N4I
Second: chain 5 F5K
The ratio to parent of the first is lower: 0.389 for the first, 0.952 for the second.

Compared with chain 5 N4S, chain 5 F5A is higher in ratio to parent: 0.271 for the first, 1.05 for the second.

First: chain 5 L8M
Second: chain 5 N4D
The ratio to parent of the first is higher: 0.887 for the first, 0.487 for the second.

Going from chain 5 N4E to chain 5 I3G, the ratio to parent rises from 0.189 to 0.636.

Going from chain 5 F5H to chain 5 I2F, the ratio to parent rises from 0.947 to 0.951.

Compared with chain 5 I2L, chain 5 S1F is lower in ratio to parent: 1.02 for the first, 0.805 for the second.

Going from chain 5 N4F to chain 5 F5Q, the ratio to parent rises from 0.0275 to 0.939.

Going from chain 5 N4Y to chain 5 L8C, the ratio to parent rises from 0.0148 to 0.882.

Compared with chain 5 K7I, chain 5 N4A is lower in ratio to parent: 0.799 for the first, 0.498 for the second.

Compared with chain 5 L8V, chain 5 E6M is lower in ratio to parent: 0.686 for the first, 0.593 for the second.

Going from chain 5 K7H to chain 5 L8N, the ratio to parent falls from 0.997 to 0.888.

First: chain 5 L8K
Second: chain 5 N4W
The ratio to parent of the first is higher: 0.901 for the first, 0.017 for the second.

Going from chain 5 I3D to chain 5 E6L, the ratio to parent falls from 0.575 to 0.329.

Going from chain 5 I3N to chain 5 F5R, the ratio to parent falls from 0.961 to 0.958.

First: chain 5 E6A
Second: chain 5 N4H
The ratio to parent of the first is higher: 0.845 for the first, 0.47 for the second.

First: chain 5 I3F
Second: chain 5 S1M
The ratio to parent of the first is lower: 0.869 for the first, 0.954 for the second.

First: chain 5 I2K
Second: chain 5 E6H
The ratio to parent of the first is higher: 0.906 for the first, 0.59 for the second.

Compared with chain 5 F5C, chain 5 K7M is lower in ratio to parent: 1.04 for the first, 0.418 for the second.

Compared with chain 5 N4T, chain 5 F5W is higher in ratio to parent: 0.165 for the first, 0.866 for the second.

Compared with chain 5 F5G, chain 5 L8F is lower in ratio to parent: 0.873 for the first, 0.826 for the second.

Compared with chain 5 L8I, chain 5 L8E is lower in ratio to parent: 0.859 for the first, 0.685 for the second.

Going from chain 5 N4K to chain 5 I2V, the ratio to parent rises from 0.566 to 1.04.

First: chain 5 E6V
Second: chain 5 N4L
The ratio to parent of the first is lower: 0.0269 for the first, 0.618 for the second.

Going from chain 5 L8G to chain 5 F5S, the ratio to parent falls from 0.966 to 0.886.

First: chain 5 K7N
Second: chain 5 F5I
The ratio to parent of the first is lower: 0.706 for the first, 0.891 for the second.

Compared with chain 5 S1T, chain 5 E6Q is lower in ratio to parent: 0.927 for the first, 0.918 for the second.

chain 5 F5N showed a ratio to parent of 0.947.

Variants of: B2
Experiment: % of reporter cells activated (NFAT-GFP), raw

Compared with chain 5 I3A, chain 5 I3L is higher in ratio to parent: 0.632 for the first, 0.98 for the second.

Compared with chain 5 E6C, chain 5 E6I is lower in ratio to parent: 0.0175 for the first, 0.0144 for the second.

Going from chain 5 I3V to chain 5 K7I, the ratio to parent falls from 1.08 to 0.197.

Compared with chain 5 F5G, chain 5 F5Y is higher in ratio to parent: 0.564 for the first, 0.875 for the second.

First: chain 5 I3E
Second: chain 5 F5H
The ratio to parent of the first is lower: 0.656 for the first, 1 for the second.

Compared with chain 5 F5L, chain 5 L8E is lower in ratio to parent: 0.844 for the first, 0.493 for the second.

Going from chain 5 L8P to chain 5 I3K, the ratio to parent falls from 0.83 to 0.651.

Compared with chain 5 S1D, chain 5 L8H is higher in ratio to parent: 0.536 for the first, 0.85 for the second.

First: chain 5 K7H
Second: chain 5 N4A
The ratio to parent of the first is higher: 0.81 for the first, 0.0295 for the second.

Compared with chain 5 I3S, chain 5 S1A is lower in ratio to parent: 1.14 for the first, 1.05 for the second.

Going from chain 5 S1G to chain 5 E6S, the ratio to parent falls from 0.898 to 0.039.

First: chain 5 E6Q
Second: chain 5 F5W
The ratio to parent of the first is lower: 0.315 for the first, 0.773 for the second.

Going from chain 5 K7C to chain 5 E6H, the ratio to parent rises from 0.0363 to 0.116.

Going from chain 5 I3R to chain 5 E6W, the ratio to parent falls from 0.134 to 0.00894.

First: chain 5 I2D
Second: chain 5 S1H
The ratio to parent of the first is higher: 1.3 for the first, 1 for the second.

First: chain 5 K7S
Second: chain 5 I2A
The ratio to parent of the first is lower: 0.406 for the first, 1.25 for the second.

First: chain 5 S1T
Second: chain 5 I2N
The ratio to parent of the first is higher: 1.13 for the first, 0.898 for the second.

Compared with chain 5 F5P, chain 5 N4P is lower in ratio to parent: 0.74 for the first, 0.00481 for the second.

First: chain 5 K7Y
Second: chain 5 E6L
The ratio to parent of the first is higher: 0.48 for the first, 0.014 for the second.

Compared with chain 5 L8Q, chain 5 N4E is lower in ratio to parent: 0.602 for the first, 0.0544 for the second.

Going from chain 5 N4K to chain 5 N4C, the ratio to parent falls from 0.504 to 0.0197.

Compared with chain 5 L8V, chain 5 E6P is lower in ratio to parent: 0.761 for the first, 0.0742 for the second.

First: chain 5 F5C
Second: chain 5 S1Y
The ratio to parent of the first is higher: 1.13 for the first, 0.825 for the second.

Compared with chain 5 E6T, chain 5 I2L is higher in ratio to parent: 0.0253 for the first, 1.14 for the second.

Going from chain 5 S1L to chain 5 E6A, the ratio to parent falls from 0.332 to 0.238.

Compared with chain 5 F5K, chain 5 I2C is higher in ratio to parent: 0.56 for the first, 1.15 for the second.

Compared with chain 5 N4D, chain 5 F5D is higher in ratio to parent: 0.035 for the first, 0.687 for the second.

Going from chain 5 F5E to chain 5 F5A, the ratio to parent rises from 0.483 to 0.81.

Going from chain 5 S1V to chain 5 I3H, the ratio to parent rises from 0.67 to 1.24.

Going from chain 5 K7W to chain 5 L8C, the ratio to parent rises from 0.407 to 0.616.

First: chain 5 N4V
Second: chain 5 L8I
The ratio to parent of the first is lower: 0.00909 for the first, 1.02 for the second.

First: chain 5 I2R
Second: chain 5 L8M
The ratio to parent of the first is higher: 0.92 for the first, 0.862 for the second.

For chain 5 L8W, the ratio to parent was 0.685.

Reference: PMC11480844 (2024)
